B1: Homolog_E11: RecE, Salmonella enterica; SEQ ID NO: 134 (protein, listed as Salmonella enterica)
chain: DRGLLTKEWRKGNRVSRITRTASGANAGGGNLTDRGEGFVHDLTSLARDVATGVLARSMDVDIYNLHPAHAKRVEEIIAENKPPFSVFRDKFITMPGGLDYSRAIVVASVKEAPIGIEVIPAHVTEYLNKVLTETDHANPDPEIVDIACGRSSAPMPQRVTEEGKQDDEEKPQPSGAMADEQATAETVEPNATEHHQNTQPLDAQSQVNSVDAKYQELRAELQEARKNIPSKNPVDADKLLAASRGEFVDGISDPNDPKWVKGIQTRDSVYQNQPETEKISPDAKQPEPVVQQEPETVCNACGQTGGDNCPDCGAVMGDATYQETFGEENQVEAKEKDPEEMEGAEHPHNENAGSDPHRDCSDETGEVADPVIVEDIEPGIYYGISNENYHAGPGVSKSQLDDIADTPALYLWRKNAPVDTTKTKTLDLGTAFHCRVLEPEEFSNRFIVAPEFNRRTNAGKEEEKAFLMECASTGKTVITAEEGRKIELMYQSVMALPLGQWLVESAGHAESSIYWEDPETGILCRCRPDKIIPEFHWIMDVKTTADIQRFKTAYYDYRYHVQDAFYSDGYEAQFGVQPTFVFLVASTTVECGRYPVEIFMMGEEAKLAGQQEYHRNLRTLADCLNTDEWPAIKTLSLPRWAKEYAND
B2: Homolog_E15: RecE, Photobacterium sp. JCM 19050; SEQ ID NO: 142 (protein, listed as Photobacterium sp.)
chain: MAERVRTYQRDAVFAHELKAEFDEAVENGKTGVTLEDQARAKRMVHEATTNPASRNWFRYDGELAACERSYFWRDEEAGLVLKARPDKEIGNNLIDVKSIEVPTDVCACDLNAYINRQIEKRGYHISAAHYLSGTGKDRFFWIFINKVKGYEWVAIVEASPLHIELGTYEVLEGLRSIASSTKEADYPAPLSHPVNERGIPQPLMSNLSTYAMKRLEQFREL
B3: Homolog_T12: RecT, Acetobacter; SEQ ID NO: 135 (protein, listed as Acetobacter sp.)
chain: MNAPQKQNTRAAVKKISPQEFAEQFAAIIPQVKSVLPAHVTFEKFERVVRLAVRKNPDLLTCSPASLFMACIQAASDGLLPDGREGAIVSRWSSKKSCNEASWMPMVAGLMKLARNSGDIASISSQVVFEGEHFRVVLGDEERIEHERDLGKTGGKIVAAYAVARLKDGSDPIREIMSWGQIEKIRNTNKKWEWGPWKAWEDEMARKTVIRRLAKRLPMSTDKEGERLRSAIERIDSLVDISANVDAPQIAADDEFAAAAHGVEPQQIAAPDLIGRLAQMQSLEQVQDIEPQVSHAIQEADKRGDSDTANALDAALQSALSRTSTAKEEVPA
B4: Homolog_T14: RecT, Pseudobacteriovorax antillogorgiicola; SEQ ID NO: 139 (protein, listed as Pseudobacteriovorax antillogorgiicola)
chain: MGHLVSKTEQDYIKQHYAKGATDQEFEHFIGVCRARGLNPAANQIYFVKYRSKDGPAKPAFILSIDSLRLIAHRTGDYAGCSEPIFTDGGKACTVTVRRNLKSGETGNFSGMAFYDEQVQQKNGRPTSFWQSKPRTMLEKCAEAKALRKAFPQDLGQFYIREEMPPQYDEPIQVHKPKALEEPRFSKSDLSRRKGLNRKLSALGVDPSRFDEVATFLDGTPDRELGQKLKLWLKEAGYGVNQ
B5: Homolog_T15: RecT, Photobacterium sp. JCM 19050; SEQ ID NO: 141 (protein, listed as Photobacterium sp.)
chain: MNTDMIAMPPSPAISMLDTSKLDVMVRAAELMSQAVVMVPDHFKGKPADCLAVVMQADQWGMNPFTVAQKTHLVSGTLGYESQLVNAVISSSKAIKGRFHYEWSDGWERLAGKVQYVKESRQRKGQQGSYQVTVAKPTWKPEDEQGLWVRCGAVLAGEKDITWGPKLYLASVLVRNSELWTTKPYQQAAYTALKDWSRLYTPAVMQGSMTGKSWSLTGRLISPR
B6: Homolog_E14: RecE, Pseudobacteriovorax antillogorgiicola; SEQ ID NO: 140 (protein, listed as Pseudobacteriovorax antillogorgiicola)
chain: MSKLSNLKVSNSDVDTLSRIRMKEGVYRDLPIESYHQSPGYSKTSLCQIDKAPIYLKTKVPQKSTKSLNIGTAFHEAMEGVFKDKYVVHPDPGVNKTTKSWKDFVKRYPKHMPLKRSEYDQVLAMYDAARSYRPFQKYHLSRGFYESSFYWHDAVTNSLIKCRPDYITPDGMSVIDFKTTVDPSPKGFQYQAYKYHYYVSAALTLEGIEAVTGIRPKEYLFLAVSNSAPYLTALYRASEKEIALGDHFIRRSLLTLKTCLESGKWPGLQEEILELGLPFSGLKELREEQEVEDEFMELVG
B7: Homolog_T13: RecT, Salmonella enterica subsp. enterica serovar Javiana str. 10721; SEQ ID NO: 137 (protein, listed as Salmonella enterica)
chain: MPKQPPIAKADLQKTQGARTPTAVKNNNDVISFINQPSMKEQLAAALPRHMTAERMIRIATTEIRKVPALGDCDTMSFVSAIVQCSQLGLEPGGALGHAYLLPFGNRNEKSGKKNVQLIIGYRGMIDLARRSGQIASLSARVVREGDDFSFEFGLEEKLVHRPGENEDAPVTHVYAVARLKDGGTQFEVMTRKQIELVRAQSKAGNNGPWVTHWEEMAKKTAIRRLFKYLPVSIEIQRAVSMDEKETLTIDPADASVITGEYSVVENAGVEENVTA
B8: Homolog_E13: RecE, Salmonella enterica subsp. enterica serovar Javiana str. 10721; SEQ ID NO: 138 (protein, listed as Salmonella enterica)
chain: MYYDIPNEAYHAGPGVSKSQLDDIADTPAIYLWRKNAPVDTEKTKSLDTGTAFHCRVLEPEEFSKRFIIAPEFNRRTSAGKEEEKTFLEECTRTGRTVLTAEEGRKIELMYQSVMALPLGQWLVESAGYAESSVYWEDPETGILCRCRPDKIIPEFHWIMDVKTTADIQRFRTAYYDYRYHVQDAFYSDGYRAQFGEIPTFVFLVASTTAECGRYPVEIFMMGEDAKLAGQREYRRNLQTLAECLNNDEWPAIKTLSLPRWAKENANA
B9: Homolog_E12: RecE, Acetobacter; SEQ ID NO: 136 (protein, listed as Acetobacter sp.)
chain: MVISKSGIYDLTNEQYHADPCPEMSLSSSGARDLLSSCPAKFIAAKQLPQQNKRCFDIGSAGHLMVLEPHLFDQKVCEIKHPDWRTKAAKEERDAAYAEGRIPLLSREVEDIRAMHSVVWRDSLGARAFSGGKAEQSLVWRDEEFGIWCRLRPDYVPNNAVRIFDYKTATNGSPDAFMKEIYNRGYHQQAAWYLDGYEAVTGHRPREFWFVVQEKTAPFLLSFFQMDEMSLEIGRTLNRQAKGIFAWCLRNNCWPGYQPEVDGKVRFFTTSPPAWLVREYEFKNEHGAYEPPEIKRKEVA

tested on: HSP90AA1 locus; test: mKate knock-in gene-editing assay, RecE/RecT homologs, HSP90AA1 locus; format: cell-based, human; conditions: HEK293 cells, MCP fusion, n=3
Method in brief: (§1)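 RecE/RecT homologs from 15 microbial species, codon-optimized and each fused via E-XTEN linker to MCP with NLS, tested for mKate knock-in. Cells transfected by Lipofectamine 3000 (HEK293T 250 ng DNA/well; HeLa, HepG2 400 ng); knock-in efficiency measured by flow cytometry 72 h post-transfection.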

| Molecule | Mean mKate+ (%), HSP90AA1 [%] |
| --- | --- |
| B1 | 3.1167 |
| B2 | 6.0500 |
| B3 | 5.2733 |
| B4 | 4.7200 |
| B5 | 5.2333 |
| B6 | 5.7100 |
| B7 | 5.7200 |
| B8 | 5.6900 |
| B9 | 6.0800 |

tested on: DYNLT1 locus; test: mKate knock-in gene-editing assay, RecE/RecT homologs, DYNLT1 locus; format: cell-based, human; conditions: HEK293 cells, MCP fusion, n=3
Method in brief: as §1

| Molecule | Mean mKate+ (%), DYNLT1 [%] |
| --- | --- |
| B1 | 7.0567 |
| B2 | 5.0700 |
| B3 | 8.5900 |
| B4 | 6.7700 |
| B5 | 7.8033 |
| B6 | 6.0167 |
| B7 | 9.9567 |
| B8 | 5.6333 |
| B9 | 5.2633 |

Reference: patent US20250034594A1, “RNA-GUIDED GENOME RECOMBINEERING AT KILOBASE SCALE” (THE BOARD OF TRUSTEES OF THE LELAND STANFORD JUNIOR …, priority 2021, published 2025)
